This assay deals with neuropilin-1 (NRP1), wildtype, expressed on BW cells (human) (UniProt O14786). Kind of assay: flow cytometry on cells; saturation: BW NRP1 cells with increasing concentrations of monomeric rh-C4Ad, detected with monoclonal C4d antibody and PE goat anti-mouse IgG; Langmuir isotherm for single-class 1:1 binding; apparent KD.

Drawing on publication PMC6753332, this text covers Kd for one substance.

Take “recombinant human C4Ad (rh-C4Ad) (domain or fragment)”: the Kd was 710 nM.
